Experimental data published in patent US20220195015A1 (published 2022).

Molecular target: SARS-CoV-2 spike receptor binding domain (RBD), wild type (SARS-CoV-2, UniProt P0DTC2 319-539)
Assay: ELISA on coated RBD protein

Binder | EC50 [ng/mL]
C043 (antibody, V domains shown) VH: QLVQSGPEVKKPGTSVKVSCKASGFTFYNSAVQWVRQARGQRLEWVGWIVVGSGNTDYAQKFQERVTMTRDLSTNTAYMEVNSLRSEDTAVYYCAAPYCSGGTCLDGFDIWGQGTMVTVSS VL: EIVLTQSPGTLSLSPGERGTLSCRASQSVRSNYLAWYKQRPGQAPRLLVYGASSRATGIPDRFSGSGSGTDFTLTISRLEPEDFAVYYCQQYGSSPWTFGQGTKVEIK | 12.1
C095 (antibody, V domains shown) VH: VQLVEAGGGVVQPGRSLRLSCAASGLAFSIYGMHWVRQAPGKGLEWVAIVAQDGSKKYYADSVKGRFTISRDNSKNTLYLEMNSLRTEDTAVYYCVKEGRPSDTVVVVAFDYWGQGSLVTVSS VL: DIQLTQSPSSLSASVGDRVTITCRASQSISNYLNWYQQKPGKAPKVIIYAASSLQSGVPSRFSGSGSGTDFTLTISSLQPEDFATYYCQQSHSIPRTFGQGTKVEIK | 1.1
C097 (antibody, V domains shown) VH: QVQLQESGPGLVKPSQTLSLTCTVSGGSISSGPYYWSWIRQHPGKGLEWIGYIYYSGSTYYNPSLKSRVTISVDTSKKQFSLNLNSVTAADTAVYYCARVWQYYDSTGSFDYWGQGTLVTVSS VL: DIVMTQSPLSLPVTPGEPASISCRSSRGLLHSNGYNYLDWYLQKPGQSPQLLIYLGSNRASGVPDRFSGSGSVTDFTLNISRVEAEDVGVYYCMQALQTPFTFGPGTKVDIK | 3.45
C048 (antibody, V domains shown) VH: VQLQESGPGLVKPSETLSLTCAVSGGSVSSGNYYWNWIRQPPGKGLEWIGYIYYSGSTNYNPSLKSRVTISVDTSKNQFSLKLNSVTAADTAVYHCARETYYYDSSGYYISDAFDIWGQGTMVTVSS VL: not shown | 4.8
C049 (antibody, V domains shown) VH: QVQLQESGPGLVKPSETLSLTCTVSGGSVSSGTFYWSWIRQPPGKGLEWIGYIHYSGSTNYNPSLKSRVTISVDTSKNQFSLRLSSVTAADTAVYYCARESFYYDRSGYYGSDAFDIWGQGTMVTVSS VL: DIQMTQSPSTLSSSVGDRVTITCRASQNISRWLAWYQQKPGKAPKLLIYKASTLESGVPSRFSGSGSGTKFTLTISSLQPDDFATYYCQQYNSYLYTFGQGTKLEIK | 4.09
C044 (antibody, V domains shown) VH: EVQLVESGGGLVQPGGSLRLSCAASGFTFSSYSMNWVRQAPGKGLEWVSYISSSSSTIYYADSVKGRFTISRDNAKNSLYLQMNSLRDEDTAVYYCAREAHDGALTDYGDYLNWFDPWGQGTLVTVSS VL: SYELTQPPSVSVAPGKTARITCGGNNIGSKSVHWYQQKPGQAPVLVIYYDSDRPSGIPERFSGSNSGNTATLTISRVEAGDEADYYCQVWDSSSDHLYWVFGGGTKLTVL | 1820
C045 (antibody, V domains shown) VH: EVQLVESGGGLVQPGGSLRLSCAASGFTFSTYSMNWVRQAPGKGLEWVSYISSSSSTIHYADSVKGRFTISRDNAKNSLYLQMNSLRDEDTAVYYCAREAHDGALTDYGDYLNWFDPWGQGTLVTVSS VL: SYELTQPPSVSVAPGKTARITCGGTNIGSKNVHWYQQKPGQAPVLVIYYDNDRPSGIPERFSGSNSGNTATLTISRVEAGDEADYYCQVWDTTSDHFYWVFGGGTKLTVL | 7
C098 (antibody, V domains shown) VH: EVQLVESGGGLIQPGGSLRLSCAASGFTVSSNYMSWVRQAPGKGLEWVSVIYSGGSTYYADSVKGRFTISRDNSKNTLYLQMNSLRAEDTAVYYCARDLYSSGGTDIWGQGTMVTVSS VL: not shown | 7.7
C099 (antibody, V domains shown) VH: EVQLVESGGGLIQPGGSLRLSCAASGITVSSNYMSWVRQAPGKGLEWVSVMYAGGSTFYADSVKGRFTISRDDSKNTLFLQMNSLRAEDTAIYYCARDLYSSGGTDIWGQGTMVTVSS VL: EIVLTQSPGTLSLSPGERATLSCRASQSIGSSYLAWYQQKPGLAPRLLIYGASRRATGIPDKFSGSGSGADFTLTISRLEPEDFAVYYCQQYGSSPGTFGQGTKVEIK | 2.45
C047 (antibody, V domains shown) VH: QVQLQESGPGLVKPSETLSLTCTVSGGSISSTTYYWDWIRQSPGKGLEWIGSIFYTGITYYSPSLKSRVTISVDTSKNQFSLRLNSMTAADTAVYYCARRLRQLWFGPWFDPWGQGTLVTVSS VL: QSALTQPPSASGSPGQSVTISCTGTRSDVGDYNYVSWYQQHPDKAPKLIIYEVTKRPSGVPDRFSGSKSGNTASLTVSGLQAEDEADYYCSSYAGSNNVMFGGGTKLTVL | 11.1
C710 (antibody, V domains shown) VH: QVQLQESGPGLVKPSETLSLTCIVSGGSINSTTYYWDWIRQSPGKGLEWIGSIFYTGITYYSPSLKTRVTISVDTSKNQFSLRLNSMTAADTAVYYCARRLRQLWFGPWFDPWGQGTLVTVSS VL: QSALTQPPSASGSPGQSVTISCTGTRSDVGDYNYVSWYQQHPDKAPKLIIFEVTKRPSGVPDRFSGSKSGNTASLTVSGLQAEDEADYYCSSYAGSSNVMFGGGTKLTVL | 17.8
C046 (antibody, V domains shown) VH: EVQLVESGGGLAQPGRSLRLSCAASGFTFDDYAMHWVRQAPGKGLEWVSGINWNSGSLGYADSVKGRFTISRGIAKNSLYLQMNSLRPEDTAFYYCAKAGVRGIAAAGPDLNFDYWGQGTLVTVSS VL: EIVLTQSPATLSLSPGERATLSCRASQSVSSYLAWYQQKPGQAPRLLIYDASNRATGIPARFIGSGSGTDFTLTISSLEPEDFAVYYCQQRITFGQGTRLEIK | 4.02
C096 (antibody, V domains shown) VH: EVQLVESGGGLVKPGGSLRLSCVASGFTFRNAWMNWVRQAPGKGLEWVGRIKANSDGGTIDYAEPVQGRFTISREDSRNSLYLQMNSLKTEDTAVYYCTTGPQYDDFGHSYIVDSWGPGTLVTVSS VL: DIVMTQSPLSLPVTLGEPASISCRSSQSLLHSNGFHFLEWYLQKPGQSPQLLIYVGSNRASGVPDRFSGSGSGTDFTLKISRVEAEDVGVYYCMQTLQTPLTFGGGTKVEIK | 5.18
C703 (antibody, V domains shown) VH: EVQLLESGGGLVQPGGSLRLSCAGSGFTFSHYALSWVRQAPGKGLEWVSCISGTGGNSHYADSVKGRFTSSRDNSKNILYLQMNSLRAEDTAVYFCAKGGDFWSGYLIPFDSWGQGTLVTVSS VL: SYELTQSPSVSVAPGKTARITCGGDSIGSKNVHWYQQKPGQAPVLVMYYDNDRPSGIPERFSGYNSGNTATLSISRVEAGDEADYYCLVWDGSGDPWVFGGGTKLTVL | 10.9
C704 (antibody, V domains shown) VH: VQLVESGGGVVQPGRSLRLSCAASGFTFSRYGMHWVRQAPGKGLEWVAVSSYDGSNEYYANSVKGRFTISRDNSKNTLYLQMNSLRAEDTAVYYCAKTGASYCGGDCPFHFDYWGQGTLVTVSS VL: IRMTQSPSSLSASVGDRVTITCQASQDINNYLNWYQQKPGKAPKLLIYDASDLETGVPSRFSGGGSGTDFTFTISSLQPEDIATYYCQHYNNLPITFGQGTRLEIK | 13.4
C706 (antibody, V domains shown) VH: EVQLVESGGGLVKPGGSLRLSCAASGFTFSNVWMSWVRQAPGKGLEWVGRIKSKIDGGTTEYAAPVKGRFIISRDDSKNTLSLQMNSLKTEDTAVYYCTTDHGREPPVHWGQGTLVTVSS VL: EIVLTQSPGTLSLSPGERASLSCRARQSVYSNYLAWYQHKSGQAPRLLFYGASSRATDIPDRFSASGSGTDFTLTISRLEPEDFAVYYCLQYGPSPTFGPGTRLEIK | 73.5
